First the molecules themselves.
B2: 8His-MBP-DRN (natural protein)
chain: not shown
notes: also called DORNRÖSCHEN; source: E. coli BL21 (DE3), purified (Ni resin); for EMSA also size-exclusion chromatography; not shown: 8His, N-terminal, kept; MBP, N-terminal, kept

The data set “8His-MBP-DRN” has as its target B2. The data set is described as follows: native gel or EMSA; EMSA with biotin-labelled CLV3 promoter probe (−1,090 to −1,064); GST-WUS alone or with 8His-MBP-DRN; super-shift. To be noted: both partners purified. In general terms: In EMSA bound probe runs differently from free probe, usually more slowly.
Data set [1] concerns the molecule itself. The data set is described as follows: pull-down; competition: agarose beads with 8His-MBP-WUS incubated with soluble GST-WUS for 6 h before soluble 8His-MBP-DRN was added; binding group without DRN.
The next data set deals with T1, GST-BRM (Arabidopsis, UniProt Q6EVK6 1-976).
T1 construct: The pull-down methods call it GST-BRM; also called BRAHMA; source: E. coli BL21 (DE3), purified (glutathione resin); not shown: GST, N-terminal, kept
T1 sequence (looked up): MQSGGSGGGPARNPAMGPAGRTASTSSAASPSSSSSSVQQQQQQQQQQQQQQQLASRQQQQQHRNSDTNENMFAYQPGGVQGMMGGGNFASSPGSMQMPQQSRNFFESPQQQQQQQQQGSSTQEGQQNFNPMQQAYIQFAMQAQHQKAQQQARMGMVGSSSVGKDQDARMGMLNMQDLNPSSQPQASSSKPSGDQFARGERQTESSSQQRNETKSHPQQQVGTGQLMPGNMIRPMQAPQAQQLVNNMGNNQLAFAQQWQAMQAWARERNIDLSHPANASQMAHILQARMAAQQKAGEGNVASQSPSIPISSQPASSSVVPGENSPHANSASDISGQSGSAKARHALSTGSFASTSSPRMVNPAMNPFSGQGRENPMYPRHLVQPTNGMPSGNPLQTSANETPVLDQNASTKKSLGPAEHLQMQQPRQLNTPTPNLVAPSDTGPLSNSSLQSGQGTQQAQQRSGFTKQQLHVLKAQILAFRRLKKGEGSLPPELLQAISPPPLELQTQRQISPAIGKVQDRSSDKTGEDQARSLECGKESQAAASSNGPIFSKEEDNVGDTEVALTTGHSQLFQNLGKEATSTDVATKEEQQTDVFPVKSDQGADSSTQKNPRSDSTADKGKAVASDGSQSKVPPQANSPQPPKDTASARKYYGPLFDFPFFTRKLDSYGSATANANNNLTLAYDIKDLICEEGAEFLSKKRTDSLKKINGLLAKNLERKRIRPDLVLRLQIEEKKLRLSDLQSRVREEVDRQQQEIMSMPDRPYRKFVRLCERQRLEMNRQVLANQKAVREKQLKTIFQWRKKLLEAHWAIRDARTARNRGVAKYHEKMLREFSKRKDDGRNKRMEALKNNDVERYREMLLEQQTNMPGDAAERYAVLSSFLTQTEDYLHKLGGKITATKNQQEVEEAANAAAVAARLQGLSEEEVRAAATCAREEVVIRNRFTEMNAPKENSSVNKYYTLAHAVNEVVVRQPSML
The experiment in a line: pull-down; beads loaded with protein and soluble protein rotated at 4°C for 4 h in pull-down buffer (200 mM NaCl, 1 mM EDTA, 20 mM Tris-HCl, 0.15 mM PMSF, pH 8.0); blots with anti-GST and anti-His. Conditions: both partners purified.

8His-MBP-DRN, sequence (Q9SAD4 whole entry): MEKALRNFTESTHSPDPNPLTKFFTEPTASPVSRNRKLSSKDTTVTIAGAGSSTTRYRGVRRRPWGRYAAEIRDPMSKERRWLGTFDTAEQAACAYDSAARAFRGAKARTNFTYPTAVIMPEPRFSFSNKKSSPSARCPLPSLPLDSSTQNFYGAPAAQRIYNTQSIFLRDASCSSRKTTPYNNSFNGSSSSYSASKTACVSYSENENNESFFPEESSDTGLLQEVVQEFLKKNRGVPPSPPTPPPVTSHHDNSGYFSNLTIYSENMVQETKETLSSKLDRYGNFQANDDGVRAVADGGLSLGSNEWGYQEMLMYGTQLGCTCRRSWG

B1: GST-WUS (natural protein, Arabidopsis, UniProt Q9SB92 1-292, looked up)
chain: MEPPQHQHHHHQADQESGNNNNNKSGSGGYTCRQTSTRWTPTTEQIKILKELYYNNAIRSPTADQIQKITARLRQFGKIEGKNVFYWFQNHKARERQKKRFNGTNMTTPSSSPNSVMMAANDHYHPLLHHHHGVPMQRPANSVNVKLNQDHHLYHHNKPYPSFNNGNLNHASSGTECGVVNASNGYMSSHVYGSMEQDCSMNYNNVGGGWANMDHHYSSAPYNFFDRAKPLFGLEGHQEEEECGGDAYLEHRRTLPLFPMHGEDHINGGSGAIWKYGQSEVRPCASLELRLN
notes: also called WUSCHEL; glutathione-S-transferase (GST)-WUS; source: E. coli BL21 (DE3), purified (glutathione resin); for EMSA also size-exclusion chromatography; not shown: GST, N-terminal, kept
On to B1, for which the binding result (with 8His-MBP-DRN; in data set [1]) was “binds” throughout.

B2: in the data set with GST-BRM, the binding result is on record as “binds”.

Values taken from PMC11548754, “DRN facilitates WUS transcriptional regulatory activity by chromatin remodeling to regulate shoot stem cell homeostasis in Arabidopsis” (PLOS Biology, 2024).
